Measurements published in US20140271457A1 (AbbVie / Abbott, published 2014).
Where a chain is given by its changes, count along the chain named.

B1: DVD2799 (bispecific antibody, IgG1)
VH: EVQLVQSGAEVKKPGASVKVSCKASGYTFTKYWLGWVRQAPGQGLEWMGDIYPGYDYTHYNEKFKDRVTLTTDTSTSTAYMELRSLRSDDTAVYYCARSDGSSTYWGQGTLVTVSSASTKGPEVQLVQSGAEVKKPGASVKVSCKASGYTFANYGIIWVRQAPGQGLEWMGWINTYTGKPTYAQKFQGRVTMTTDTSTSTAYMELSSLRSEDTAVYYCARKLFTTMDVTDNAMDYWGQGTTVTVSS
VL: DVLMTQTPLSLPVTPGEPASISCTSSQNIVHSNGNTYLEWYLQKPGQSPQLLIYKVSNRFSGVPDRFSGSGSGTDFTLKISRVEAEDVGVYYCFQVSHVPYTFGGGTKVEIKRTVAAPDIQMTQSPSSLSASVGDRVTITCRASQDISQYLNWYQQKPGKAPKLLIYYTSRLQSGVPSRFSGSGSGTDFTLTISSLQPEDFATYFCQQGNTWPPTFGQGTKLEIKR
B2: DVD3026 (bispecific antibody, IgG1)
VH: B1 VH with A152N, T224N, M226V, D227A
VL: DVLMTQTPLSLPVTPGEPASISCTSSQNIVHSNGNTYLEWYLQKPGQSPQLLIYKVSNRFSGVPDRFSGSGSGTDFTLKISRVEAEDVGVYYCFQVSHVPYTFGGGTKVEIKRTVAAPSVFIFPPDIQMTQSPSSLSASVGDRVTITCRASQDIENYLNWYQQKPGKAPKLLIYYTSRLQSGVPSRFSGSGSGTDFTLTISSLQPEDFATYFCQQGNTQPPTFGQGTKLEIKR
B3: DVD2802 (bispecific antibody, IgG1)
VH: EVQLVQSGAEVKKPGASVKVSCKASGYTFTKYWLGWVRQAPGQGLEWMGDIYPGYDYTHYNEKFKDRVTLTTDTSTSTAYMELRSLRSDDTAVYYCARSDGSSTYWGQGTLVTVSSASTKGPSVFPLAPEVQLVQSGAEVKKPGASVKVSCKASGYTFANYGIIWVRQAPGQGLEWMGWINTYTGKPTYAQKFQGRVTMTTDTSTSTAYMELSSLRSEDTAVYYCARKLFTTMDVTDNAMDYWGQGTTVTVSS
VL: B1 VL
B4: DVD3024 (bispecific antibody, IgG1)
VH: B1 VH with A152N, T224N, M226V, D227A
VL: B1 VL with S148E, Q149N, W212Q
B5: DVD3027 (bispecific antibody, IgG1)
VH: B3 VH with A159N, T231N, M233V, D234A
VL: B1 VL with S148E, Q149N, W212Q
B6: DVD2801 (bispecific antibody, IgG1)
VH: B1 VH
VL: B2 VL with E155S, N156Q, Q219W
B7: DVD3018 (bispecific antibody, IgG1)
VH: EVQLVQSGAEVKKPGASVKVSCKASGYTFNNYGIIWVRQAPGQGLEWMGWINTYTGKPTYAQKFQGRVTMTTDTSTSTAYMELSSLRSEDTAVYYCARKLFNTVAVTDNAMDYWGQGTTVTVSSGGGGSGGGGSEVQLVQSGAEVKKPGASVKVSCKASGYTFTKYWLGWVRQAPGQGLEWMGDIYPGYDYTHYNEKFKDRVTLTTDTSTSTAYMELRSLRSDDTAVYYCARSDGSSTYWGQGTLVTVSS
VL: DIQMTQSPSSLSASVGDRVTITCRASQDIENYLNWYQQKPGKAPKLLIYYTSRLQSGVPSRFSGSGSGTDFTLTISSLQPEDFATYFCQQGNTQPPTFGQGTKLEIKRGGSGGGGSGDVLMTQTPLSLPVTPGEPASISCTSSQNIVHSNGNTYLEWYLQKPGQSPQLLIYKVSNRFSGVPDRFSGSGSGTDFTLKISRVEAEDVGVYYCFQVSHVPYTFGGGTKVEIKR
B8: DVD3023 (bispecific antibody, IgG1)
VH: EVQLVQSGAEVKKPGASVKVSCKASGYTFTKYWLGWVRQAPGQGLEWMGDIYPGYDYTHYNEKFKDRVTLTTDTSTSTAYMELRSLRSDDTAVYYCARSDGSSTYWGQGTLVTVSSGGGGSGGGGSEVQLVQSGAEVKKPGASVKVSCKASGYTFNNYGIIWVRQAPGQGLEWMGWINTYTGKPTYAQKFQGRVTMTTDTSTSTAYMELSSLRSEDTAVYYCARKLFNTVAVTDNAMDYWGQGTTVTVSS
VL: DVLMTQTPLSLPVTPGEPASISCTSSQNIVHSNGNTYLEWYLQKPGQSPQLLIYKVSNRFSGVPDRFSGSGSGTDFTLKISRVEAEDVGVYYCFQVSHVPYTFGGGTKVEIKRGGSGGGGSGDIQMTQSPSSLSASVGDRVTITCRASQDIENYLNWYQQKPGKAPKLLIYYTSRLQSGVPSRFSGSGSGTDFTLTISSLQPEDFATYFCQQGNTQPPTFGQGTKLEIKR
B9: DVD3204 (bispecific antibody, IgG1)
VH: EVQLVESGGGLVQPGGSLRLSCAASGFTFSNYGVTWVRQAPGKGLEWVSMIWADGSTHYASSVKGRFTISRDNSKNTLYLQMNSLRAEDTAVYYCAREWQHGPVAYWGQGTLVTVSSASTKGPEVQLVESGGGLVQPGGSLRLSCAASGFSFSKYWLGWVRQAPGKGLEWVSDIYPGYDYTHYNEKFKDRFTISADTSKNTAYLQMNSLRAEDTAVYYCARSDGSSTYWGQGTLVTVSS
VL: DIQMTQSPSSLSASVGDRVTITCRASQLVSSAVAWYQQKPGKAPKLLIYWASARHTGVPSRFSGSGSGTDFTLTISSLQPEDFATYYCQQHYKTPFTFGQGTKLEIKRTVAAPDIQMTQSPSSLSASVGDRVTITCTSSQNIVHSNGNTYLEWYQQKPGKAPKLLIYKVSNRFSGVPSRFSGSGSGTDFTLTISSLQPEDFATYYCFQVSHVPYTFGQGTKVEIKR
B10: DVD3019 (bispecific antibody, IgG1)
VH: EVQLVQSGAEVKKPGASVKVSCKASGYTFNNYGIIWVRQAPGQGLEWMGWINTYTGKPTYAQKFQGRVTMTTDTSTSTAYMELSSLRSEDTAVYYCARKLFNTVAVTDNAMDYWGQGTTVTVSSASTKGPEVQLVQSGAEVKKPGASVKVSCKASGYTFTKYWLGWVRQAPGQGLEWMGDIYPGYDYTHYNEKFKDRVTLTTDTSTSTAYMELRSLRSDDTAVYYCARSDGSSTYWGQGTLVTVSS
VL: DIQMTQSPSSLSASVGDRVTITCRASQDIENYLNWYQQKPGKAPKLLIYYTSRLQSGVPSRFSGSGSGTDFTLTISSLQPEDFATYFCQQGNTQPPTFGQGTKLEIKRTVAAPDVLMTQTPLSLPVTPGEPASISCTSSQNIVHSNGNTYLEWYLQKPGQSPQLLIYKVSNRFSGVPDRFSGSGSGTDFTLKISRVEAEDVGVYYCFQVSHVPYTFGGGTKVEIKR
B11: DVD3021 (bispecific antibody, IgG1)
VH: B10 VH
VL: DIQMTQSPSSLSASVGDRVTITCRASQDIENYLNWYQQKPGKAPKLLIYYTSRLQSGVPSRFSGSGSGTDFTLTISSLQPEDFATYFCQQGNTQPPTFGQGTKLEIKRTVAAPSVFIFPPDVLMTQTPLSLPVTPGEPASISCTSSQNIVHSNGNTYLEWYLQKPGQSPQLLIYKVSNRFSGVPDRFSGSGSGTDFTLKISRVEAEDVGVYYCFQVSHVPYTFGGGTKVEIKR
B12: DVD3022 (bispecific antibody, IgG1)
VH: EVQLVQSGAEVKKPGASVKVSCKASGYTFNNYGIIWVRQAPGQGLEWMGWINTYTGKPTYAQKFQGRVTMTTDTSTSTAYMELSSLRSEDTAVYYCARKLFNTVAVTDNAMDYWGQGTTVTVSSASTKGPSVFPLAPEVQLVQSGAEVKKPGASVKVSCKASGYTFTKYWLGWVRQAPGQGLEWMGDIYPGYDYTHYNEKFKDRVTLTTDTSTSTAYMELRSLRSDDTAVYYCARSDGSSTYWGQGTLVTVSS
VL: B10 VL
B13: DVD3203 (bispecific antibody, IgG1)
VH: EVQLVESGGGLVQPGGSLRLSCAASGFTFSNYGVTWVRQAPGKGLEWVSMIWADGSTHYASSVKGRFTISRDNSKNTLYLQMNSLRAEDTAVYYCAREWQHGPVAYWGQGTLVTVSSGGGGSGGGGSEVQLVESGGGLVQPGGSLRLSCAASGFSFSKYWLGWVRQAPGKGLEWVSDIYPGYDYTHYNEKFKDRFTISADTSKNTAYLQMNSLRAEDTAVYYCARSDGSSTYWGQGTLVTVSS
VL: DIQMTQSPSSLSASVGDRVTITCRASQLVSSAVAWYQQKPGKAPKLLIYWASARHTGVPSRFSGSGSGTDFTLTISSLQPEDFATYYCQQHYKTPFTFGQGTKLEIKRGGSGGGGSGDIQMTQSPSSLSASVGDRVTITCTSSQNIVHSNGNTYLEWYQQKPGKAPKLLIYKVSNRFSGVPSRFSGSGSGTDFTLTISSLQPEDFATYYCFQVSHVPYTFGQGTKVEIKR

target: Recombinant Human TNF-α/TNFSF1A (human, UniProt P01375 77-233); assay: cell-based or functional assay
Sequence (P01375 77-233 limits assumed): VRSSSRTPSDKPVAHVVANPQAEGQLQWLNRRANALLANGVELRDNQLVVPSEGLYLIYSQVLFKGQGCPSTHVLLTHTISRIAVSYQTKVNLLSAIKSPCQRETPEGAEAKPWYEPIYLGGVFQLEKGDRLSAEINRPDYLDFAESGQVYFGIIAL

| C-Terminal VD huTNFα Neutralization Assay IC50 [nM] | N-Terminal VD huTNFα Neutralization Assay IC50 [nM] | Binder |
| --- | --- | --- |
| 3.08 |  | B1 |
| 0.038 |  | B2 |
| 0.195 |  | B3 |
| 0.934 |  | B4 |
| 0.076 |  | B5 |
| 0.116 |  | B6 |
|  | 0.008 | B7 |
| 0.203 |  | B8 |
|  | 0.001 | B9 |
|  | 0.009 | B10 |
|  | 0.007 | B11 |
|  | 0.016 | B12 |
|  | 0.071 | B13 |
